Laboratory results taken from publication doi:10.1101/2025.07.03.659157, “Transient Poly(ADP-Ribose) Triggers FUS Condensation Hysteresis via a Prion-Like Mechanism” (bioRxiv, 2025).

Assays:
[1] = test system: FUS with all 15 RGG3-PY arginines to alanine; experiment: fluorescence anisotropy or EMSA (method not given); settings: poly(ADP-ribose); length not given in material; EMSA and anisotropy: 50 mM Tris-HCl pH 7.5, 100 mM KCl, 10 mM beta-mercaptoethanol, 0.1 mg/mL BSA, 2 mM MgCl2, 23 C, 30 min; single-molecule: 20 mM Tris-HCl pH …
[2] = test system: FUS RGG3-PY fragment; experiment: fluorescence anisotropy; settings: poly(ADP-ribose); length not given in material; EMSA and anisotropy: 50 mM Tris-HCl pH 7.5, 100 mM KCl, 10 mM beta-mercaptoethanol, 0.1 mg/mL BSA, 2 mM MgCl2, 23 C, 30 min; single-molecule: 20 mM Tris-HCl pH …
[3] = test system: [RGRGG]5 peptide; experiment: EMSA; settings: poly(ADP-ribose), 16 ADP-ribose units; no base sequence; EMSA and anisotropy: 50 mM Tris-HCl pH 7.5, 100 mM KCl, 10 mM beta-mercaptoethanol, 0.1 mg/mL BSA, 2 mM MgCl2, 23 C, 30 min; single-molecule: 20 mM Tris-HCl pH …
[4] = test system: [KGKGG]5 peptide; experiment: EMSA; settings: poly(ADP-ribose), 16 ADP-ribose units; no base sequence; EMSA and anisotropy: 50 mM Tris-HCl pH 7.5, 100 mM KCl, 10 mM beta-mercaptoethanol, 0.1 mg/mL BSA, 2 mM MgCl2, 23 C, 30 min; single-molecule: 20 mM Tris-HCl pH …
[5] = test system: [RGYGG]5 peptide; experiment: EMSA; settings: poly(ADP-ribose), 16 ADP-ribose units; no base sequence; EMSA and anisotropy: 50 mM Tris-HCl pH 7.5, 100 mM KCl, 10 mM beta-mercaptoethanol, 0.1 mg/mL BSA, 2 mM MgCl2, 23 C, 30 min; single-molecule: 20 mM Tris-HCl pH …
[6] = test system: [KGYGG]5 peptide; experiment: EMSA; settings: poly(ADP-ribose), 16 ADP-ribose units; no base sequence; EMSA and anisotropy: 50 mM Tris-HCl pH 7.5, 100 mM KCl, 10 mM beta-mercaptoethanol, 0.1 mg/mL BSA, 2 mM MgCl2, 23 C, 30 min; single-molecule: 20 mM Tris-HCl pH …
[7] = biological target: T1, His-MBP-tagged PrLD (prion-like domain) of FUS (Fused in Sarcoma); experiment: BLI
T1 chain: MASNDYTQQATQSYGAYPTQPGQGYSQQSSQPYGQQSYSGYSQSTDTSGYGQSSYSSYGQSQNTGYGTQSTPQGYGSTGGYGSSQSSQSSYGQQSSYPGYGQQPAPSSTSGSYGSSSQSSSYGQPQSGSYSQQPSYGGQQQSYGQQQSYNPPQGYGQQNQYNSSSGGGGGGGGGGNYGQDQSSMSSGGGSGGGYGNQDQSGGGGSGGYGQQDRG

[8] = biological target: T2, His-MBP-tagged PrLD (prion-like domain) of FUS (Fused in Sarcoma); experiment: BLI; His-MBP-tagged PrLD (400 nM) immobilised on HIS1K (anti-His) biosensors; analyte in PBSA (PBS + 0.1% BSA), MBP-tagged CTRR at 0.4, 1, 2, 5 and 12 uM; association 600 s, dissociation 600 s; Octet RED96; association phase fitted to an exponential kinetic binding model; settings: both partners purified
T2 chain: T1 chain

AF488-PAR (anisotropy)
binding signal (fold weaker than wild-type FUS) [1]: 2.7
binding signal (fold weaker than full-length FUS) [2]: 3

Cy3-PAR 16-mer
Kd [3]: 0.8 µM
Kd [4]: 24 µM
Kd [5]: 10 µM
Kd [6]: 29 µM

B1: MBP-tagged CTRR (C-terminal RGG-rich region, RGG2-ZnF-RGG3-PY) of FUS (domain or fragment)
chain: RADFNRGGGNGRGGRGRGGPMGRGGYGGGGSGGGGRGGFPSGGGGGGGQQRAGDWKCPNPTCENMNFSWRNECNQCKAPKPDGPGGGPGGSHMGGNYGDDRRGGRGGYDRGGYRGRGGDRGGFRGGRGGGDRGGFGPGKMDSRGEHRQDRRERPY
modifications: MBP tag omitted. Limits are not printed: start taken just after the RRM (285-371), running to the C-terminus (RGG2-ZnF-RGG3-PY). Zn2+ in the RanBP2-type zinc finger. His-MBP tag omitted. Limits are not printed: 1-214 is the conventional FUS PrLD/low-complexity domain, and it includes Y177, which the paper places in the PrLD.
koff [7]: 0.00052 s⁻¹

B2: MBP-tagged CTRR (C-terminal RGG-rich region, RGG2-ZnF-RGG3-PY) of FUS (domain or fragment)
chain: B1 chain
modifications: MBP tag omitted. Limits are not printed: start taken just after the RRM (285-371), running to the C-terminus (RGG2-ZnF-RGG3-PY). Zn2+ in the RanBP2-type zinc finger. / His-MBP tag omitted. Limits are
Kd [8]: 1.37 µM
